Here are results for one molecule from PMC9880023.

For the assay, the target named is HA-NRX1βS4(−), expressed on COS-7 cells. As to the kind of experiment: cell-based competitive binding assay (fluorescence microscopy); COS-7 cells expressing HA-NRX1βS4(−); biotin-AβOs fixed at 100 nM monomer equivalent, SorCS1-Fc varied 0–1,500 nM; 1 h at 4°C.

B1: SorCS1 ectodomain tagged with human immunoglobulin Fc region (SorCS1-Fc) (Fc fusion)
chain: SLSCCPPQHPSSTPRRTLTPRGFPHPGPLGRAPATPPPLFMRPLFAVAPGDRALFLERAGGSRVSVATAARSGRRRRSGTEPEKIEPGEGASRSRRDMLKDGGQQGLGTGARDPGKATRFRMEELRLTSTTFALTGDSAHNQAMVHWSGHNSSVILILTKLYDYNLGSITESSLWRSTDYGTTYEKLNDKVGLKTILSYLYVCPTNKCKIMLLTDPEIESSLLISSDEGATYQKYRLNFYLQSLLFHPKQEDWILAYSQDQKLYSSAEFGRRWQLIQESVVPNRFYWSVMGSSKEPDLVHLEARTVDGHSIYLTCRMQNCTEANRNKPFPGYIDPDSLIVQDDYVFVQLTSGGRPHYYVSYRRSPFAQMKLPKYALPKDMHVISTDENQVFAAVQEWNQNDTYNLYISDTRGVYFTLALENVRSSRGPEGNVMIDLYEVAGIKGMFLANKKIDNQVKTFITYNKGRDWRLLQAPDADLRGDPVHCLLPYCSLHLHLKVSENPYTSGIIASRDTAPSIIVASGNIGSELSDSDISMFVSSDAGNTWRQIFEEEHSILYLDQGGVLVAMKHTSLPIRHLWLSFDEGRSWSKYSFTSIPLFVDGVLGEPGEETLIMTVFGHFSHRSEWQLVKVDYKSIFDRRCAEEDYRPWQLHSQGEACIMGAKRIYKKRKSERKCMQKYAGAMESEPCVCTEADFDCDYGYERHSNGQCLPAFWFNPSSLSKDCSLGQSYLNSAGYRKVVSNNCTDGVREQYTAKPQKCPGKAPRGLRIVTADGKLTAEQGHNVTLMVQLEEGDVQRTLIQVDFGDGIAVSYVNLSSMEDGIKHVYQNVGIFRVTVQVDNSLGSDSAVLYLHVTCPLEHVHLSLPFVTTKNKEVNATAVLWPSQVGTLTYVWWYGNNTEPLITLEGSISFKFTSEGMNTITVQVSAGNAILQDTKTIAVYEEFRSLRLAFSPNLDDYNPDIPEWRRDISRVIKKSLVEATGIPSQHILVAVLPGLPTAAELFVLPYQDGTRENKRSPEDLEQISEVLIHKLNQNLVHFELKPGVQVLVHAAHLTAAPLVDLTPTHS
As to B1, the IC50 amounted to 92.8 nM.
